What all share (experiment): SPR, antibody captured, C2 as analyte;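 also: biacore SPR at 37 °C, anti-C2 mAbs captured via goat anti-human IgG on CM5 chips, double-referenced sensorgrams fit to a 1:1 kinetic or steady-state model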
A general note: Surface plasmon resonance follows binding to a sensor surface in real time, without labels.

Assay [1] deals with T1, human C2 G414A (human, UniProt P06681 21-752).
T1 sequence: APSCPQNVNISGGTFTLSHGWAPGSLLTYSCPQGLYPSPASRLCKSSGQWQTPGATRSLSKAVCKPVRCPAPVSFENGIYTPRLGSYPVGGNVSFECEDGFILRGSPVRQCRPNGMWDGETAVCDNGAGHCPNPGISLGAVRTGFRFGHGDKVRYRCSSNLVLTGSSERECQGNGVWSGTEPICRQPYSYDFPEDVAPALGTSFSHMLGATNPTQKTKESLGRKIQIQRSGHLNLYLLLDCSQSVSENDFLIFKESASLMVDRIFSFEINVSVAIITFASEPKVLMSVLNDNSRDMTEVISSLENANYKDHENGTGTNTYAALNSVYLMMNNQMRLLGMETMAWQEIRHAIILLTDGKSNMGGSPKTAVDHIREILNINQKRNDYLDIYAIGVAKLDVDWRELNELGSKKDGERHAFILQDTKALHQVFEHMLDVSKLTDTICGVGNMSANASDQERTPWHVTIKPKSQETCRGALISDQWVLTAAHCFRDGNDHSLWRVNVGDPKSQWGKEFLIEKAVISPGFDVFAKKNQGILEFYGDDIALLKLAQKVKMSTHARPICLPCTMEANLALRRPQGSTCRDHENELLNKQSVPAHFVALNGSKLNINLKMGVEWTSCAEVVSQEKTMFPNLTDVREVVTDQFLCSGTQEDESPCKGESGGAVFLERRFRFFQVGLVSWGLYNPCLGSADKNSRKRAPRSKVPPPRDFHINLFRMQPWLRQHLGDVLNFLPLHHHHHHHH

Assay [2] deals with T2, human C2 P704A (human, UniProt P06681 21-752).
T2 sequence: T1 sequence with A394G, P684A

The target of assay [3] is T3, human C2 F689A (human, UniProt P06681 21-752).
T3 sequence: T1 sequence with A394G, F669A

The target in assay [4] is T4, human C2 K531A (human, UniProt P06681 21-752).
T4 sequence: T1 sequence with A394G, K511A

By Kd is commonly meant the equilibrium constant for the complex coming apart. Read a high Kd as lower affinity.

Substitutions are numbered along the chain they refer to.

B1: RF16-226 (antibody, human IgG4 S228P, lambda)
heavy: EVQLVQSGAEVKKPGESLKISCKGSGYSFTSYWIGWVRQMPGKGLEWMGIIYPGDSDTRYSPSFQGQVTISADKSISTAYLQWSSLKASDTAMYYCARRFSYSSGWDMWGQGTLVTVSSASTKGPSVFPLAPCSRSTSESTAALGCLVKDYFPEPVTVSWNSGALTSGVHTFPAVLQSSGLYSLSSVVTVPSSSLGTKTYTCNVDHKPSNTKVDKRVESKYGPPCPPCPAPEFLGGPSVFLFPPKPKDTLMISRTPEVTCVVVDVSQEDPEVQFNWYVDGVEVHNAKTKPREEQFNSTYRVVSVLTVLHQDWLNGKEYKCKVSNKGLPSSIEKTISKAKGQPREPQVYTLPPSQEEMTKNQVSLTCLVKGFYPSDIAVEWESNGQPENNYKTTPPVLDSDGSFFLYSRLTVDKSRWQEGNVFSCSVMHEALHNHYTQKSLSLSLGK
light: SYELTQPPSVSVSPGQTARITCSGDALTSKYVAWYQQKSGLAPLLVIYEDTRRPSGIPAKFSGSSSGSVATLTISGAHGDDEADYYCYSTDASGHQRVFGGGTKLTVLSQPKAAPSVTLFPPSSEELQANKATLVCLISDFYPGAVTVAWKADGSPVKAGVETTKPSKQSNNKYAASSYLSLTPEQWKSHRSYSCQVTHEGSTVEKTVAPTECS
notes: pH-dependent anti-C2 antibody from a phage display library; also called WT
Turning to B1, the Kd in assay [1] is 11.2 nM; in assay [2], 120 nM; in assay [3] it was 9.3 nM; in assay [4], 12.1 nM.

The values above are taken from patent US20220332804A1 (CSL INNOVATION, published 2022).
